In patent publication US20210309722A1:

Target: GLP-1 receptor
Experiment: cell-based or functional assay

- EC50, cAMP production (cAMP-inducible luciferase reporter) in HEK293 cells expressing GLP1R: 3.1 pM
Substance: native human GLP-1 (7-37) (from UniProt P01275 21-180) (peptide)
